Non-standard residues stand in square brackets, D forms with d. Primed or numbered codes have the meaning given here. No end group written: not given here. *: point of attachment. DTPA′ = diethylenetriaminepentaacetic acid (Gd(III) complex) N-cap, O=C([O-])CN(CCN(CC(=O)[O-])CC(=O)[O-])CCN(CC(=O)[O-])CC(=O)*.[Gd+3]; PEG3′ = not defined here
Target: T1, human recombinant MMP-7 (Homo sapiens, UniProt P09237)
T1 sequence (P09237 95-267): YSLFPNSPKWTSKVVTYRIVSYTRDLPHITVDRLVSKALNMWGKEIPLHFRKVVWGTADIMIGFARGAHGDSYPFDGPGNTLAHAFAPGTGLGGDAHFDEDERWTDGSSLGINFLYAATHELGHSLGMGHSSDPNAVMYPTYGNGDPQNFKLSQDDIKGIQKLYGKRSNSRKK
Test: Enzymatic cleavage by MMP-7, analysed by ESI-MS
Format: biochemical
Experimental: During development of embodiments of the present invention, a 2 μL aliquot of human recombinant MMP-7 was thawed on ice, diluted to 50 μL with assay buffer containing 1 mM APMA, and incubated for 1 hour at 37° C. to activate the enzyme. To the activated enzyme solution was added 1 μL of a 20 mM solution of gadolinium(III)-diethylenetriaminepentaacetic acid-Ala-Pro-Leu-Ala-Leu-Trp-Ala-PEG3-Ala. The solution was incubated at 37° C. for 24 hours after which 10 μL was dissolved in 50 μL MeOH for analysis by ESI-MS.
1542.75; found negative mode 771.60, (m/2)]

In the case of “Gadolinium(III)-diethylenetriaminepentaacetic Acid-Ala-Pro-Leu-Ala-Leu-Trp-Ala-PEG3-Ala ({DTPA′}-APLALWA[PEG3′]A; also: Gd(III) complexed by DTPA)”, the “cleavage by MMP-7 (ESI-MS)” value (activated MMP-7, 37° C., 24 hours) was “revealed a peak corresponding to the MMP-7 cleavage fragment Leu-Trp-Ala-PEG3-Ala” and the “ESI-MS of control solution lacking MMP-7” value (no MMP-7) was “revealed only the expected uncleaved”.
